In patent publication US10677782B2, “Methods of determining interferon having direct inhibitory effects on tumors and uses thereof” (SUPERLAB FAR EAST LIMITED, priority 2013, dated 2020):

Key:
[1] = system: human lung cancer SPC-A4 xenografts; experiment: Human lung cancer SPC-A4 xenografts in nude mice (Example 4); type: in vivo; conditions: for TV (mm^3, mean ± SD) (D0): day 0, start of treatment; for TV (mm^3, mean ± SD) (D21): day 21
Method: Before commencement of this study, the xenografts were passaged twice in nude mice. Under sterile conditions, well-grown tumors were cut into 1.5 mm^3 fragments and one such fragment was injected by trocar needle into the right flank of each study animal. […] Individual tumor size (length and width) was measured twice per week with microcalipers. Tumor volume (V) was calculated using the formula: V=(length×width^2)/2. Individual relative tumor volume (RTV) was calculated using the formula: RTV=Vt/V0, where Vt is the tumor volume on the day of measurement and V0 is the tumor volume on the day of first treatment. Therapeutic effect of the test article or control article was expressed in terms of TIC (%), using the formula: TIC (%) (mean RTV of the treated group/mean RTV of the control group)×100%; and in terms of % Inhibition, using the formula: % Inhibition=100%−T/C %.
The 1.5 mm^3 fragments were then used for s.c. implantation into the test animals.

A549 tumor cells = experiment: Cell viability over 1-6 days, MTT assay; type: cell-based, human; conditions: 10 μg/ml
Method: The cell survival rate was evaluated in a standard MTT assay (3-(4,5-dimethylthiazol-2-yl)-2,5-diphenyltetrazolium bromide assay, Sigma, St. Louis, Mo.). For the assay, about 20 μl MTT (at […]) was added to each well. The cells were incubated at 37° C. for 4 hr. After that, the supernatant of each well was drawn off carefully and then an equal volume (150 microliter) of dimethyl sulfoxide (DMSO) was added to each well and mixed thoroughly on a shaker for 15 min. The absorbance from the plates was read at 595 nm with a Thermo Scientific Microplate Reader (Thermo Fisher Scientific Inc., Lowell, Mass.). The relative cell viability was calculated as follows: Cell viability=(Treated group(OD595) minus blank(OD595))/(Control group(OD595) minus blank(OD595))×100%.

Axin2 mRNA in A549 cells = experiment: qPCR of Wnt pathway target genes in A549 cells; type: cell-based, human; conditions: 10 μg/ml, 24 hr; Mock control set at 1
Method: (§1) After 24 hr of treatment, cellular total mRNA was isolated using TRIZOL Reagent and cDNA was synthesized and further subjected to qPCR, using specific primers of four (4) Wnt signaling downstream genes, Axin2, CD24, Survivin and ID2. Experiments were conducted in triplicate and normalized with the Mock group.
(§2) Total mRNA was isolated using TRIZOL Reagent (Invitrogen, Carlsbad, Calif.) according to the manufacturer's instructions. Complementary DNA (cDNA) was synthesized using a RT-PCR Kit (Cat #: FSQ-101, TOYOBO, Japan) according to the manufacturer's instructions and then subjected to qPCR with a SYBR Green PCR kit (Cat #: QPK-201, TOYOBO, Japan). The primers of the four Wnt pathway target genes were as follows: Axin2 sense primer: 5′-[…]-3′ (SEQ ID NO:8) and antisense primer: 5′-[…]-3′ (SEQ ID NO: 9); CD24 sense primer: 5′-[…]-3′ (SEQ ID NO: 10) andantisense primer: 5′-[…]-3′ (SEQ ID NO: 11); Survivin sense primer: 5′-[…]-3′ (SEQ ID NO: 12) and antisense primer: 5′-[…]-3′ (SEQ ID NO: 13) and ID2 sense primer: 5′-[…]-3′ (SEQ ID NO: 14) and antisense primer: 5′-[…]-3′ (SEQ ID NO: 15).
(§3) The amplification protocol consisted of incubations at 95° C. for 1 minute, 40 cycles (95° C. for 15 seconds, 60° C. for 15 seconds, 72° C. for 30 seconds). Incorporation of the SYBR Green dye into PCR products was monitored in real time with a Bio-Rad Detection System and subsequently analyzed using Bio-Rad CFX manager 2.1 software. The samples were pooled for each condition and run in duplicate. Treated samples were compared to Mock using the 2^−ΔΔCt method and plotted as fold change. GAPDH was used as the normalization control.

CD24 mRNA in A549 cells = experiment: qPCR of Wnt pathway target genes in A549 cells; type: cell-based, human; conditions: 10 μg/ml, 24 hr; Mock control set at 1
Method: as §1, §2, §3

ID2 mRNA in A549 cells = experiment: qPCR of Wnt pathway target genes in A549 cells; type: cell-based, human; conditions: 10 μg/ml, 24 hr; Mock control set at 1
Method: as §1, §2, §3

[2] = system: Survivin mRNA in A549 cells; experiment: qPCR of Wnt pathway target genes in A549 cells; type: cell-based, human; conditions: 10 μg/ml, 24 hr; Mock control set at 1
Method: as §1, §2, §3

[3] = system: phosphorylation of STAT1 (Tyr701), STAT2 (Tyr690), STAT3 (Tyr705) in A549 cells; experiment: STAT phosphorylation by Western Blot; type: cell-based, human; conditions: 10 μg/ml; 0, 5, 15, 30, 60, 120 and 240 minutes
From the text: (§4) After treatment, the cells were collected, cellular proteins were extracted and loaded onto SDS-PAGE […] for Western Blot analysis to observe the phosphorylation of STAT1 (Tyr701), STAT2 (Tyr690), and STAT3(Tyr705). GAPDH was used as a loading control.
(§5) The primary antibodies used were: STAT1 (1:1000, Cat #: 9175S), Tyr701 phosphorylated-STAT1 (1:1000, Cat #: 9167S), STAT2 (1:500, Cat #4594), Tyr690 phosphorylated-STAT2 (1:1000, Cat #: 441S), STAT3 (1:1000, Cat #: 9132), Tyr705 phosphorylated-STAT3 (1:1000, Cat #: 9145S). Anti-mouse (Cat #: sc-2005) or rabbit (Cat #: sc-2004) or goat (Cat #: sc-2020) HRP-conjugated secondary antibodies (Santa Cruz Technology, Santa Cruz, Calif.) were used at concentrations of 1:2000. Blots were visualized by use of Luminescence/Fluorescence Imaging LAS4000 System (GE Healthcare Life Sciences, USA) with super signal west pico chemiluminescnet substrate kit (Thermo Scientific, USA).

[4] = system: phosphorylation of STAT1 (Tyr701), STAT2 (Tyr690), STAT3 (Tyr705) in Hela cells; experiment: STAT phosphorylation by Western Blot; type: cell-based, human; conditions: 10 μg/ml; 0, 5, 15, 30, 60, 120 and 240 minutes
From the text: as §4, §5

[5] = 0.05 mg/mouse i.t. every other day
[6] = 0.10 mg/mouse i.t. every other day
[7] = 0.15 mg/mouse i.t. every other day

B1: rSIFN-co: Recombinant super-compound interferon; amino acid sequence SEQ ID NO: 1 (same as interferon alfacon-1), encoded by SEQ ID NO: 2, novel tertiary structure (protein)
chain: MCDLPQTHSLGNRRALILLAQMRRISPFSCLKDRHDFGFPQEEFDGNQFQKAQAISVLHEMIQQTFNLFSTKDSSAAWDESLLEKFYTELYQQLNDLEACVIQEVGVEETPLMNVDSILAVKKYFQRITLYLTEKKYSPCAWEVVRAEIMRSFSLSTNLQERLRRKE
modifications: Amino acid sequence of recombinant interferon
TV (mm^3, mean ± SD) (D0) [1, 5]: 170 ± 41 mm^3
TV (mm^3, mean ± SD) (D21) [1, 5]: 2244 ± 1043 mm^3
TV (mm^3, mean ± SD) (D0) [1, 6]: 168 ± 49 mm^3
TV (mm^3, mean ± SD) (D21) [1, 6]: 2388 ± 1544 mm^3
TV (mm^3, mean ± SD) (D0) [1, 7]: 169 ± 40 mm^3
TV (mm^3, mean ± SD) (D21) [1, 7]: 2284 ± 653 mm^3
cell viability, time dependent effect (A549 tumor cells): apparent for A549 cells for only about the first 3 days of treatment
relative expression level of Axin2 mRNA (Axin2 mRNA in A549 cells): about 0.4
relative expression level of CD24 mRNA (CD24 mRNA in A549 cells): about 0.4
relative expression level of ID2 mRNA (ID2 mRNA in A549 cells): about 0.4
relative expression level of Survivin mRNA [2]: about 0.4
phosphorylation patterns for STAT1, STAT2 and STAT3 [3]: behaved similarly in their phosphorylation patterns for STAT1, STAT2 and STAT3
phosphorylation patterns for STAT1, STAT2 and STAT3 [4]: behaved similarly in their phosphorylation patterns for STAT1, STAT2 and STAT3
